{
  "source": "paper PMC4435181",
  "origin": "cited, not measured here",
  "molecular_target": "HER2 ECD (Homo sapiens) (UniProt P04626)",
  "experiment": "ELISA",
  "data": [
    {"substance": "trastuzumab", "values": [
      {"measurement": "Kd", "result": 0.1, "unit": "nM"}
    ]}
  ]
}
